Measurements taken from patent publication US8673594B2, “Methods for stimulating nervous system regeneration and repair by regulating arginase I and polyamine synthesis” (Research Foundation of City University of New York, priority 2000, dated 2014).
Entries after “also recorded” stand apart in the source; their conditions may differ.

Test system: cerebellar neurons on MAG-expressing CHO cells
Assay: Neurite outgrowth of cerebellar neurons on MAG-expressing or control CHO cells
Format: cell-based
Conditions: for block of inhibition of neurite growth by MAG after priming: neurons primed overnight with neurotrophin 200 ng/ml, then transferred to CHO monolayers
Protocol: FIG. 2: Improved Axonal Growth on MAG Induced By Elevating cAMP Levels is Transcription-Dependent. (A) Isolated cerebellar neurons at a density of 20,000 neurons per well were plated onto a monolayer of either MAG-expressing Chinese hamster ovary (CHO) cells (striped bars) or control CHO cells (black bars) and cultured overnight before being fixed and immunostained for GAP43 to visualize the neurites. The length of the longest neurite per neuron, from 180-200 neurons, was measured and results are the average length+/−SEM. Where indicated, dibutyryl cAMP (dbcA) at 1 mM in the presence or absence of the inhibitor of transcription, 5,6-dichloro-1-b-D-ribofuranosylbenzimidazole (DRB) at 5 μM, was added to each culture. (B) Cerebellar neurons (1×10^6) were plated onto poly-L-lysine and cultured overnight with brain-derived neurotrophic factor (BDNF) at 200 ng/ml, (termed priming) in the presence or absence of DRB at 5 μM, before being transferred to the CHO cell monolayers.
FIG. 6: An Ornithine Decarboxylase (ODC) Inhibitor Abrogates the Blocking Effect of dbcAMP on the Inhibition of Axonal Outgrowth by MAG and Myelin. […] The longest neurite from at least 180-200 neurons were measured. Results are shown as the mean neurite length+/−SEM.
After further incubation, neurons were fixed and immunostained for GAP43. The longest neurite from each neuron for 180-200 neurons were measured. Results are shown as the mean neurite length+/−SEM.
FIG. 8: An Inhibitor Of ODC Blocks The Priming Effects Of GDNF On The Inhibition By MAG. […] After further incubation, neurons were fixed and immunostained for GAP43. The longest neurite from each neuron for 180-200 neurons were measured. Results are shown as the mean neurite length±SEM.
Primed neurons were transferred to either MAG-expressing or control CHO cells (A) or a substrate of CNS myelin (B) for further incubation. Neurons were then fixed and immunostained for GAP43. The longest neurite from each neuron was measured for 180-200 neurons. Results are shown as the percentage of control. […]
Neurons were isolated essentially as described in Doherty at al., Nature, 343, pp. 464-66 (1990); Neuron, 5, pp. 209-19 (1990); and Kleitman at al., Culturing Nerve Cells, pp. 337-78, MIT Press, Cambridge, Mass./London, England (G. Banker and K Goslin, Eds.) (1991). Briefly, for animals up to nine days of age, the cerebellum, from two animals were removed and combined in 5 ml of 0.025% trypsin in PBS, triturated, and incubated for a further 10 minutes (min.) at 37° C. Trypsinization was stopped by addition of 5 ml DMEM containing 10% fetal calf serum (FCS) and cells were centrifuged at 800 rpm for 6 min. […] For older DRG neurons, ganglia were removed from two animals and incubated in 5 ml of Sat medium containing 0.025% trypsin and 0.15% collagenase type I (Worthington) for 30 min. at 37° C. The ganglia were triturated with a fire-polished Pasteur pipette. Trypsinization was stopped by adding 5 ml of DMEM containing 10% FCS, centrifuged at 800 rpm for 6 min, and resuspended in 2 ml of SAT (DeBellard et al., 1996). Cells were counted with a Coulter counter.
Chinese hamster ovary (CHO) cells deficient in the dihydrofolate reductase (dhfr) gene (Urlaub and Chasin, Proc. Natl, Acad, Sci. 77, pp. 4216-20 (1980)) were transfected with a MAG-cDNA expression plasmid with the dhfr gene and the L-MAG cDNA, cells with multiple copies of dbfr were selected by growing in increasing concentrations of methotrexate, and the expression of MAG by individual transfected CHO cell lines characterized as described in Mukhopadhyay et al., Neuron, 13, pp. 757-67 (1994), which is incorporated herein by reference. The MAG-expressing transfected CHO cell line) (“CHO-MAG2”) in that publication was deposited on Jun. 27, 1996 with the American Type Culture Collection (ATCC) (Rockville, Md.) according to the provisions of the Budapest Treaty, and was assigned the ATCC accession number designated: ATCC CRL-12145. […]

| Molecule | block of inhibition of neurite growth by MAG (agent added directly to the co-culture (dbcAMP 1 mM), overnight) | block of inhibition of neurite growth by MAG after priming |
| --- | --- | --- |
| CCCC(=O)Nc1ncnc2c1ncn2[C@@H]1O[C@@H]2COP(=O)(O)O[C@H]2[C@H]1OC(=O)CCC [dbcAMP, dibutyryl cAMP] | blocks inhibition of neuronal growth by MAG; also recorded: blocks the inhibition of neurite growth by MAG | – |
| GDNF: glial cell line-derived neurotrophic factor (protein, UniProt P39905 78-211, looked up) Glial cell line-derived …: SPDKQMAVLPRRERNRQAAAANPENSRGKGRRGQRGKNRGCVLTAIHLNVTDLGLGYETKEELIFRYCSGSCDAAETTYDKILKNLSRNRRLVSDKVGQACCRPIAFDDDLSFLDDNLVYHILRKHSAKRCGCI | – | overcomes inhibition of regeneration by MAG and myelin |
| BDNF: Brain-derived neurotrophic factor, Trk-family neurotrophin (protein, UniProt P23560 19-247, looked up) Neurotrophic factor BDNF …: APMKEANIRGQGGLAYPGVRTHGTLESVNGPKAGSRGLTSLADTFEHVIEELLDEDQKVRPNEENNKDADLYTSRVMLSSQVPLEPPLLFLLEEYKNYLDAANMSMRVRRHSDPARRGELSVCDSISEWVTAADKKTAVDMSGGTVTVLEKVPVSKGQLKQYFYETKCNPMGYTKEGCRGIDKRHWNSQCRTTQSYVRALTMDSKKRIGWRFIRIDTSCVCTLTIKRGR | – | blocks inhibition of neuronal growth by MAG; also recorded: blocked the inhibition by MAG |
